Data from patent US20160310424A1 (Stanford University, published 2016).

Columns and labels:
[1] = molecular target: T1, Frizzled; experiment: binding affinity stated with the liposome/Frizzled pull-down competition assay; method behind the value not described
T1 construct: also called Fz; Frizzled, the WNT receptor

[2] = molecular target: T2, low-density lipoprotein receptor-related protein 6 (LRP6) (UniProt O75581 20-1370, limits assumed); experiment: binding affinity stated in the FIG. 17 legend on the pull-down assays; method behind the value not described
T2 sequence (looked up): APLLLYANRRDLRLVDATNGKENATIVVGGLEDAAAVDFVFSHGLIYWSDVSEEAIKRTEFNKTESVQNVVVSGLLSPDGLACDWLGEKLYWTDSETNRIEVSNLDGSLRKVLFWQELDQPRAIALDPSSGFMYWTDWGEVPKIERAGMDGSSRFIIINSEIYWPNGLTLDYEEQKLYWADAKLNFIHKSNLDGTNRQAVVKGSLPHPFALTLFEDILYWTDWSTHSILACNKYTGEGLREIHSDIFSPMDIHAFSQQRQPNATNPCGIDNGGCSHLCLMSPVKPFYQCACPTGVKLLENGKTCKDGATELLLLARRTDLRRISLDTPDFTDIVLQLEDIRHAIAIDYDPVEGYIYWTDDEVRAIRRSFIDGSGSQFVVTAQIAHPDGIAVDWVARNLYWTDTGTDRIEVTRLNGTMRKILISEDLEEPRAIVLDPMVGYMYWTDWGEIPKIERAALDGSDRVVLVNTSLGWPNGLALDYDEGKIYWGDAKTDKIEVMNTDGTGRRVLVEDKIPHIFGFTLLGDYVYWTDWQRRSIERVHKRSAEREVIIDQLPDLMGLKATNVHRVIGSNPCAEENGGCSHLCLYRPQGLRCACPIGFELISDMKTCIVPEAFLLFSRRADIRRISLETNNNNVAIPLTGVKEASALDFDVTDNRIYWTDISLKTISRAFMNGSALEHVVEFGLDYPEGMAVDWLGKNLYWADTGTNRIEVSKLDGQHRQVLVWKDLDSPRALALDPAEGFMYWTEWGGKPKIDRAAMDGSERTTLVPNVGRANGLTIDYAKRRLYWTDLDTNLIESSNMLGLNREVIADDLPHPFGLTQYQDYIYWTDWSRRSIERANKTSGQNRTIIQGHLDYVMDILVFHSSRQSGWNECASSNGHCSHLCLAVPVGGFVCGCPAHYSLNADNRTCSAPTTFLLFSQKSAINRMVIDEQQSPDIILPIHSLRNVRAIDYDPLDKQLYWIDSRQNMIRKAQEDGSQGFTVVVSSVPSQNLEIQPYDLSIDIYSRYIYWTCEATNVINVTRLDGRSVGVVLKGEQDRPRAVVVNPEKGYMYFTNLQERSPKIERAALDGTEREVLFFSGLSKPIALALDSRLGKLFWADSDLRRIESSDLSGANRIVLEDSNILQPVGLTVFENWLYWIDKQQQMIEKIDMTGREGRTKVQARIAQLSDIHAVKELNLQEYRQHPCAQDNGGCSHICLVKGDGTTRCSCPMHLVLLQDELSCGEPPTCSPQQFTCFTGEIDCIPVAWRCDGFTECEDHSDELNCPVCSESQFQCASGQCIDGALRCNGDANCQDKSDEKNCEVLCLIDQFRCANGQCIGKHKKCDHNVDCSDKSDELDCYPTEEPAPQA

B1: Human Wnt3a polypeptide (ligand)
chain: SYPIWWSLAVGPQYSSLGSQPILCASIPGLVPKQLRFCRNYVEIMPSVAEGIKIGIQECQHQFRGRRWNCTTVHDSLAIFGPVLDKATRESAFVHAIASAGVAFAVTRSCAEGTAAICGCSSRHQGSPGKGWKWGGCSEDIEFGGMVSREFADARENRPDARSAMNRHNNEAGRQAIASHMHLKCKCHGLSGSCEVKTCWWSQPDFRAIGDFLKDKYDSASEMVVEKHRESRGWVETLRPRYTYFKVPTERDLVYYEASPNFCEPNPETGSFGTRDRTCNVSSHGIDGCDLLCCGRGHNARAERRREKCRCVFHWCCYVSCQECTRVYDVHTCK
modifications: palmitoylated at S209 (paragraph 228 instead reports palmitoylation at S211 and probable myristoleylation at S139 and S181); glycosylated
notes: Secreted from CHO cells and purified on blue Sepharose; In the pull-down assays it was reconstituted into DMPC:cholesterol liposomes (L-Wnt3a); also called L-Wnt3a; L-WNT3A
[1]
  Kd: ~3.6 nM
[2]
  Kd: ~9 nM
